This is an account of results in patent US20260022175A1 (Chugai, published 2026).

What is called Kd is the concentration at which binding is half-saturated. Lower therefore signals tighter binding.

Assay [1] has as its target hFcγRIIIaV on hFcγRIIIaV-expressing Jurkat cells (human, UniProt P08637 17-254). In words: cell-based or functional assay.
Assay [2] deals with T1, hFcγRIIaH on hFcγRIIaH-expressing Jurkat cells (human, UniProt P12318 34-317).
T1 sequence (looked up): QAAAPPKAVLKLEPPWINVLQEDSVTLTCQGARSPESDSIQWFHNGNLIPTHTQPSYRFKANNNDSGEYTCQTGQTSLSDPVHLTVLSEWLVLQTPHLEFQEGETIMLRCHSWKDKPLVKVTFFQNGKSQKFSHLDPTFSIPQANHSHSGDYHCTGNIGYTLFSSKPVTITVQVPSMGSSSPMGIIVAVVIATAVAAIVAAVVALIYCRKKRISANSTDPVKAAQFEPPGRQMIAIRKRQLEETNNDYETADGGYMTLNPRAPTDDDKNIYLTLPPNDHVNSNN
In words: cell-based or functional assay.

For assay [3], the target named is T2, human FcγRIa extracellular domain (human, UniProt P12314 16-292).
T2 construct: extracellular domain; also called hFcγR Ia; hFcγRIa
T2 sequence (P12314 16-292): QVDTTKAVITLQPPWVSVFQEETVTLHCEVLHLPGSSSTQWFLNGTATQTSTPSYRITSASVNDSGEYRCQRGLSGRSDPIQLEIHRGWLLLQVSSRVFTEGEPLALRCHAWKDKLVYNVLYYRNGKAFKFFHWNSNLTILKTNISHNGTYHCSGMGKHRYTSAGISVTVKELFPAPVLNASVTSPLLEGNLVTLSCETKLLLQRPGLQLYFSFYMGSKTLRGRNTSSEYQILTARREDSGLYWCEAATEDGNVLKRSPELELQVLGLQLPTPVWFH
In words: SPR Biacore 8K+; KD of G1d divided by KD of this antibody. (In general: In SPR one partner is held on a chip, and binding of the other changes the refractive index at the surface.)

For assay [4], the target named is T3, human FcγRIIa H extracellular domain (human, UniProt P12318 34-217).
T3 construct: extracellular domain; also called hFcγR IIa H
T3 sequence (looked up): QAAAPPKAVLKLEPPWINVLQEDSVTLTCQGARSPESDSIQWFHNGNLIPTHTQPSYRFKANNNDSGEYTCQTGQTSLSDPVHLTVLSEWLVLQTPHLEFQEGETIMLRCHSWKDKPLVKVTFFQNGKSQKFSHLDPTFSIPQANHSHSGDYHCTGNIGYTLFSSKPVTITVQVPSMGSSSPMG
The description is as above.

Assay [5] addresses T4, human FcγRIIa R extracellular domain (human, UniProt P12318 34-217).
T4 construct: extracellular domain; also called hFcγR IIa R
T4 sequence (looked up): T3 sequence (looked up) with H134R
The description is as above.

The target of assay [6] is T5, human FcγRIIb extracellular domain (human, UniProt P31994 43-217).
T5 construct: extracellular domain; also called hFcγR IIb
T5 sequence (looked up): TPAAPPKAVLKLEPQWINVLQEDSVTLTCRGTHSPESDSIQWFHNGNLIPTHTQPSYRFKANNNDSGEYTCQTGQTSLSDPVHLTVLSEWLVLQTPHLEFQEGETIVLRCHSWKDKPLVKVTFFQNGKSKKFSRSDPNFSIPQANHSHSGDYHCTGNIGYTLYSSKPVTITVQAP
The assay is described as above.

The target of assay [7] is T6, human FcγRIIIa F extracellular domain (human, UniProt P08637 17-208).
T6 construct: extracellular domain; also called hFcγR IIIa F
T6 sequence (P08637 17-208): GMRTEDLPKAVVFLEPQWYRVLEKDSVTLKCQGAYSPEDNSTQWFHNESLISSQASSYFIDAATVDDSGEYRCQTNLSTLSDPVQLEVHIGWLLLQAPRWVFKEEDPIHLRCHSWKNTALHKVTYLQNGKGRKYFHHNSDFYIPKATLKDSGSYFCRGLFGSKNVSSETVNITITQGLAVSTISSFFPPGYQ
Described as above.

Assay [8] has as its target T7, human FcγRIIIa V extracellular domain (human, UniProt P08637 17-208).
T7 construct: extracellular domain; also called hFcγR IIIa V
The description is as above.

Assay [9] has as its target T3, human FcγRIIa H extracellular domain. Description: SPR Biacore 8K+; KD for FcγRIIb divided by KD for this FcγR.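 Note: antibodies captured on an anti-human Fab kappa SA chip with soluble human FcγR ectodomains flowed over, FcγRIIb KD from steady-state fit, other FcγR KD from Langmuir model.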
Assay [10] concerns the target T4, human FcγRIIa R extracellular domain. Described as above.
The target in assay [11] is T6, human FcγRIIIa F extracellular domain. The description is as above.
In assay [12] the target is T7, human FcγRIIIa V extracellular domain. The assay is described as above.
The target in assay [13] is T2, human FcγRIa extracellular domain. Description: SPR Biacore 8K+, antibody captured, FcγR as analyte, 1:1 Langmuir model.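 Note: antibodies captured on a streptavidin chip through a biotinylated anti-human Fab kappa reagent, with FcγR extracellular domains injected in pH 7.4 phosphate buffer at 25 °C.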
The target of assay [14] is T3, human FcγRIIa H extracellular domain. The description is as above.
In assay [15] the target is T4, human FcγRIIa R extracellular domain. Described as above.
For assay [16], the target named is T6, human FcγRIIIa F extracellular domain. The assay is described as above.
Assay [17] concerns the target T7, human FcγRIIIa V extracellular domain. Described as above.
In assay [18] the target is T5, human FcγRIIb extracellular domain. In words: SPR Biacore 8K+, antibody captured, FcγR as analyte, steady state affinity model.
The target in assay [19] is T8, human C1q protein (Calbiochem) (human, UniProt P02745 23-245; P02746 28-253; P02747 29-245).
T8 construct: bought; also called hC1q
T8 sequence (P02745 23-245 limits assumed, chain 1 of 3): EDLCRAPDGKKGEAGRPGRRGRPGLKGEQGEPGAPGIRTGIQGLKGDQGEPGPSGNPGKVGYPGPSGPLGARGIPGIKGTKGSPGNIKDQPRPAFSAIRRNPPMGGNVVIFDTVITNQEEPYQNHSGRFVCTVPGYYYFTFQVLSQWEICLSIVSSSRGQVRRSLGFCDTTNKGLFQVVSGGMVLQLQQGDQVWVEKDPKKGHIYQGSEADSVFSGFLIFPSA
T8 sequence (P02746 28-253 limits assumed, chain 2 of 3): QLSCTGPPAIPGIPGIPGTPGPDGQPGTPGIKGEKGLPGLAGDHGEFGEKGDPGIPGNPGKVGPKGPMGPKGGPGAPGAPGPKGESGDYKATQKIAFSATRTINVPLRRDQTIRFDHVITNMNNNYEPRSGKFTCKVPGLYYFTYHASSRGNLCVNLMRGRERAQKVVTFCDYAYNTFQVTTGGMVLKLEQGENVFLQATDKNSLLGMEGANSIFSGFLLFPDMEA
T8 sequence (P02747 29-245 limits assumed, chain 3 of 3): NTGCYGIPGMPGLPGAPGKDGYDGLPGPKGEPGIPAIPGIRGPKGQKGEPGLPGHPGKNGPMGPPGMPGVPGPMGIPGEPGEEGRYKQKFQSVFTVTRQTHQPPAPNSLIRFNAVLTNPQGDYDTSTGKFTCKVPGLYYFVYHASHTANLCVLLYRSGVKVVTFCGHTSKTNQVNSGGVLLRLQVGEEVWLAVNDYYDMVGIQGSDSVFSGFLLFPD
Description: ELISA: antibody coated on the plate at the varied concentration, hC1q 3 µg/mL added, detected with HRP-conjugated anti-hC1q antibody, O.D (450-690nm).

In assay [20] the target is T9, hCTLA4-His-BAP (human CTLA4 extracellular region with C-terminal His-tag and BAP-tag) (human, biotin on the BAP-tag).
T9 construct: also called hCTLA4-His-Biotin
T9 sequence (chain, as listed by the source limits assumed): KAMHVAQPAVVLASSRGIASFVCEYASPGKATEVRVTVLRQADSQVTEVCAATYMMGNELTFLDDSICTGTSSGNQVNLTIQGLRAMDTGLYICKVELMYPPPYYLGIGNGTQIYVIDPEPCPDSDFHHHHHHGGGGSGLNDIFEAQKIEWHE
Description: SPR 37C, ATP 10 µM; ATP 10 µM.

In assay [21] the target is T9, hCTLA4-His-BAP (human CTLA4 …). Description: SPR 37C, ATP 100 µM; ATP 100 µM.
The target is the same in assay [22]. Description: SPR 37C, hCTLA4 1000 nM, no ATP; no ATP; binding amount at 1000 nM hCTLA4.
Assay [23] shares this target. In words: SPR 37C, hCTLA4 1000 nM, ATP 1 µM; ATP 1 µM; binding amount at 1000 nM hCTLA4.
Assay [24] has the same target. Description: SPR 37C, hCTLA4 1000 nM, ATP 10 µM; ATP 10 µM; binding amount at 1000 nM hCTLA4.
The target is the same in assay [25]. In words: SPR 37C, hCTLA4 1000 nM, ATP 100 µM; ATP 100 µM; binding amount at 1000 nM hCTLA4.

Numbering of substitutions follows the chain as printed.
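Throughout, for Relative value to KD between G1d and hFcgRs: antibodies captured on an anti-Fab-kappa streptavidin chip, soluble FcγR ectodomains flowed over, KD by steady-state fit for FcγRIIb and Langmuir kinetic model for the other receptors.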

T7 sequence (P08637 17-208 F176V limits assumed): as the sequence (P08637 17-208) above, with F160V counted along it
hFcγRIIIaV on hFcγRIIIaV-expressing Jurkat cells, sequence (P08637 17-254, form in doubt): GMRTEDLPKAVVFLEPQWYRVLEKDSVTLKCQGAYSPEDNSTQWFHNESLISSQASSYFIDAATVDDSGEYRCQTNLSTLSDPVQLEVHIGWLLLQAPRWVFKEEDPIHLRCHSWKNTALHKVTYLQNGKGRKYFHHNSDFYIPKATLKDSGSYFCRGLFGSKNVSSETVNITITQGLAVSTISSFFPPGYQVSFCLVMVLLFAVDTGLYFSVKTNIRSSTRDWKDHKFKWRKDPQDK

B1: H240-Kn462/L73-k0//H240-Hl441/L73-k0 (antibody, human IgG1, kappa)
heavy 1: QDQLVQSGAEVKKPGASVKVSCKASGFNIKDTYIQWVRQAPGQGLEWMGRIDPLRKQTKYREKFEGRVTITADTSTNTAYMELSSLRSEDTAVYYCVRSGREFDYWGQGTLVTVSSASTKGPSVFPLAPSSKSTSGGTAALGCLVKDYFPEPVTVSWNSGALTSGVHTFPAVLQSSGLYSLSSVVTVPSSSLGTQTYICNVNHKPSNTKVDKKVEPKSCDKTHTCPPCPAPEFQWGPMVFLFPPKPKDVLMISRTPEVTCVVVDVSDEEPEVKFNWYVDGVEVHNAKTKPREEQYNATYRVVSVLPVLHQDWLNGKEYKCKVSNDALPAPIEKTISKAKGQPREPQVCTLPPSRDELTKNQVSLWCLVKGFYPSDIAVEWESNGQPENNYKTTPPVLDSDGSFFLYSKLTVDKSRWQQGNVFSCSVMHEALHNHYTQKSLSLSP
heavy 2: QDQLVQSGAEVKKPGASVKVSCKASGFNIKDTYIQWVRQAPGQGLEWMGRIDPLRKQTKYREKFEGRVTITADTSTNTAYMELSSLRSEDTAVYYCVRSGREFDYWGQGTLVTVSSASTKGPSVFPLAPSSKSTSGGTAALGCLVKDYFPEPVTVSWNSGALTSGVHTFPAVLQSSGLYSLSSVVTVPSSSLGTQTYICNVNHKPSNTKVDKKVEPKSCDKTHTCPPCPAPELLAGPSVFLFPPKPKDVLMISRTPEVTCVVVDVSHEEPEVKFNWYVDGVEVHNAKTKPREEQYNATYRVVSVLPVLHQDWLNGKEYKCKVSNDALPAPIEETISKAKGQPREPQVYTLPPSRCELTKNQVSLSCAVKGFYPSDIAVEWESNGQPENNYKTTPPVLDSDGSFFLVSKLTVDKSRWQQGNVFSCSVMHEALHNHYTQKSLSLSP
light: DIQMTQSPSSLSASVGDRVTITCRASQDIHKYIAWYQQKPGQAPRLLIQYTSTLQPGVPSRFSGSGSGTDYTFTISSLQPEDIATYYCLQYEQLRTFGGGTKVEIKRTVAAPSVFIFPPSDEQLKSGTASVVCLLNNFYPREAKVQWKVDNALQSGNSQESVTEQDSKDSTYSLSSTLTLSKADYEKHKVYACEVTHQGLSSPVTKSFNRGEC
notes: also called EGL-ART5; ART5
Turning to B1, the “EC50 value (hFcγRIIIaV ADCC Reporter Bioassay, Hepa1-6/hEREG target cells)” value in assay [1] worked out at 0.00167 µg/mL. The “EC50 value (hFcγRIIaH ADCP Reporter Bioassay, Hepa1-6/hEREG target cells)” value in assay [2] is 0.0245 µg/mL. Also, the “Relative value to KD between G1d and hFcgRs” value in assay [3] came to 0.5; in assay [4] it was 33.9; in [5] it was 10.4; in assay [6], 1.3; in [7] it was 148; in assay [8] it was 92.9. Further, the “A/I ratio (KD for FcγRIIb divided by KD for each FcγR)” value stood at 240 in [9], 49.9 in assay [10], 399 in [11] and 2060 in assay [12]. Moreover, the Kd in [13] was found to be 0.169 nM; in assay [14] it was 33.2 nM; in assay [15], 160 nM; in [16], 20 nM; in assay [17] it was 3.86 nM; in assay [18], 7960 nM. For the same molecule, in [19], the binding result is given as “binds”.

B2: 04H1077-G1m/04L1041-lam1 (antibody, human IgG1, lambda, V domains shown)
VH: EVQLVESGGDLVKPGGGLRLSCAASGFTFSSRTMNWVRQAPGKGLEWVSSISTRSGYIYYAESVKGRFTISRDNAKNSLYLQMNSLRAEDTAVYYCARYGKREDMLWVFDYWGQGTLVTVSS
VL: QSALTQPPSASGSPGQTVTISCDGPSTDVGDYNYVHWYQQHPGKAPKLMIYFTSKKPSGVPDRFSGSKSGNTASLTVSGLQAEDEADYFCSTYAAPLGPMFGGGTKLTVLG
For B2, the Kd in [20] turned out to be 730 nM; in [21] it was 140 nM. Moreover, the “Binding to Human CTLA4” value in assay [22] was 0.006 per unit amount of antibody; in [23] it was 0.023 per unit amount of antibody; in assay [24], 0.094 per unit amount of antibody; in assay [25], 0.172 per unit amount of antibody.

B3: 04H1077-G1m/04L1067-lam1 (antibody, human IgG1, lambda, V domains shown)
VH: B2 VH
VL: B2 VL with D28G
For B3, the Kd stood at 400 nM in [20] and 76 nM in [21]. Also, the “Binding to Human CTLA4” value in assay [22] was 0.012 per unit amount of antibody; in assay [23], 0.041 per unit amount of antibody; in [24], 0.131 per unit amount of antibody; in assay [25], 0.192 per unit amount of antibody.

B4: 04H1077-G1m/04L1086-lam1 (antibody, human IgG1, lambda, V domains shown)
VH: B2 VH
VL: B2 VL with D28G, S91Q
Take B4: the Kd in assay [20] stood at 690 nM; in assay [21] it was 110 nM. Also, the “Binding to Human CTLA4” value in assay [22] was 0.01 per unit amount of antibody; in assay [23], 0.031 per unit amount of antibody; in [24], 0.106 per unit amount of antibody; in assay [25], 0.181 per unit amount of antibody.

B5: 04H1207-G1m/04L1086-lam1 (antibody, human IgG1, lambda, V domains shown)
VH: B2 VH with D10G, G17S, R32K
VL: B2 VL with D28G, S91Q
In the case of B5, the Kd in assay [20] turned out to be 330 nM; in [21], 59 nM. Further, the “Binding to Human CTLA4” value in assay [22] was 0.013 per unit amount of antibody; in assay [23], 0.047 per unit amount of antibody; in assay [24], 0.137 per unit amount of antibody; in assay [25], 0.196 per unit amount of antibody.
